We go through 16 sequences from the DeepSol protein solubility set.

This data set can be described thus: soluble on expression in E. coli; label from the status in PepcDB or PDB records.
Take “MGHHHHHHSHMAALASSLIRQKREVREPGGSRPVSAQRRVCPRGTKSLCQKQLLILLSKVRLCGGRPARPDRGPEPQLKGIVTKLFCRQGFYLQANPDGSIQGTPEDTSSFTHFNLIPVGLRVVTIQSAKLGHYMAMNAEGLLYSSPHFTAECRFKECVFENYYVLYASALYRQRRSGRAWYLGLDKEGQVMKGNRVKKTKAAAHFLPKLLEVAMYQEPSLHSVPEASPSSPPAP”: the “soluble on expression in E. coli” value is on record as “soluble”.
On to “MNPQLLRVTNRIIERSRETRSAYLARIEQAKTSTVHRSQLACGNLAHGFAACQPEDKASLKSMLRNNIAIITSYNDMLSAHQPYEHYPEIIRKALHEANAVGQVAGGVPAMCDGVTQGQDGMELSLLSREVIAMSAAVGLSHNMFDGALFLGVCDKIVPGLTMAALSFGHLPAVFVPSGPMASGLPNKEKVRIRQLYAEGKVDRMALLESEAASYHAPGTCTFYGTANTNQMVVEFMGMQLPGSSFVHPDSPLRDALTAAAARQVTRMTGNGNEWMPIGKMIDEKVVVNGIVALLATGGSTNHTMHLVAMARAAGIQINWDDFSDLSDVVPLMARLYPNGPADINHFQAAGGVPVLVRELLKAGLLHEDVNTVAGFGLSRYTLEPWLNNGELDWREGAEKSLDSNVIASFEQPFSHHGGTKVLSGNLGRAVMKTSAVPVENQVIEAPAVVFESQHDVMPAFEAGLLDRDCVVVVRHQGPKANGMPELHKLMPPLGVLLDRCFKIALVTDGRLSGASGKVPSAIHVTPEAYDGGLLAKVRDGDIIRVNGQTGELTLLVDEAELAAREPHIPDLSASRVGTGRELFSALREKLSGAEQGATCITF”, for which the “soluble on expression in E. coli” value was “soluble”.
With “MGSDKIHHHHHHMDLQNKTLLITGIDEFIGLRAAELAITQGMKVRGLQTSTNKDKAQKLGAEVIVGSITDAAIAHKACQGVDIVLHTEQLTEEAGPIKNFREINVNGAVNMAKAAKNAGVKCFVHLSSVMVYGFNYSDRITESGTLSGDNNPYCQTKIEAETELLPLNSPPDFGLIIIRAGDIYGPGSIPWIVRPILMMRQKLFAYANEGQGVINHVYIDNLIDAIFLAVEKDAYGEIFNITDGEETSWKEYFMRLAAMEGASAPMSIPKDEMKLFLKLRNQGQKLFRKKADILPESVDFMTRPYAYSITKAQTILDYKPKVDLEQGLSQTKIWLQNTDIQKLVK”, the “soluble on expression in E. coli” value is on record as “not soluble”.
Next, “MASINWSEISTVLIDMDGTILDLHFDNHFWLEHLPARYSEKMSISLDAAKAKLKADYLSVVGTIKWYCLDYWAEQTQMPITELKREIQHLIQLRTDARDFLIALKASGRDVVLVTNAHPESLSLKIERTQLDQYFDVLYSTHDFGVTKESQLLWQRLQEKHGFDCDSTLFIDDSIEILQSAQQYGIKHLLAVANPDSKKTANVITDFPAITSFDLLTAQLSKELINSTSN”: “not soluble”; “MDKVKAARSLIQEALAQSQNPCFTCSFQAEDVVVLHLLLKERPEIPVLFLDTGYHFPEVYAYRDELQKRLGFRLVNLTPALSREEQERLYGKLYETDPGRCCALRKVEPLFAALEAHDTWFTGLRREQSPTRRNLEPQEEARLPSGHRLKKVNPLYDWTLKEVFAYLAVEDLPYLPLYDQGYLSIGCAPCTAKPLDPSDPRSGRWAGKGKLECGIHLHGKEG”: “soluble”.
In the case of “MSLRQVIPIPSPPAKYLLPEVTVLDYGKKCVVIDLDETLVHSSFKPISNADFIVPVEIDGTIHQVYVLKRPHVDEFLQRMGQLFECVLFTASLAKYADPVADLLDRWGVFRARLFRESCVFHRGNYVKDLSRLGRELSKVIIVDNSPASYIFHPENAVPVQSWFDDMTDTELLDLIPFFEGLSREDDEGHHHHHH” it was “soluble”; in that of “MSKNCKSCKDLKNRGIDVDCCFEIGDKECASLGDDKGFNGKKNDCQDMHDLNDCLLGRADSALDIHDDCDWKGYLKKLVSTLYNLQKMTICAICGIWKKIHWIEEQIEKIWKKIAKMEDDIDNIASQNWEINTRYGIQESTKGMSVSINRGNGDFIFRWKDWGDAEQTQYLGEGEIRGTVNFGMRPSSNASFDWQVRDVVIQNLSYKTNNIRSVPFTLHLYLTRAGEQEIYTKSHDTTKSFNDNINKTLKLNNNGNVGISSSSGWLQFLEFFNDGPVADDRANLQIEFKNNGKPKPPRYI”, “not soluble”.
As to “MSTNPSQLVAADRIGFARLTKRAFDGENLYPLWQELMSKTDAGTATAGEQLDLALITQLFGHKQAGLSVQTETLKQQQLFRSPCASDNPRLRVLALAADIDMGGNTPIEFLLQDSGIELQTLYVIDGVPLPDPLPAHDVAIVIASDSDECMSALAAIEARVANWPAPLLNPPHLIRHLDRDKLYRLIGDIEGLEIPDTISVGRDTLVAAANGSATLPEVTGGVDFPIIVRPRGSHAGFGLARITDSVALLDYLRDRQESDYFIARYVDYASDDGQFRKYRVVVVDGKPYACHMAIANRWDIWYLNAGMAEDEVKRLEEAAFFHTFDFGFALRHKTALDGMIERIGLDYFTIDCAQTPRGDLLVFEIDNTAVVHDMDSPELYPYKPPQMHKIFDAFASMLERRVASRLTSVAAAALEHHHHHH”, the “soluble on expression in E. coli” value is reported as “soluble”.
In the case of “MAHHHHHHMHPVPQAPYLSSPSPLFPNRGWCWQRPLRIFCPFFSAPLRAASSRRCHRPFLSIRFKKRCCNNPLLLGVVEAILPEPHSPAIPPVILRVFTPPS” it was “not soluble”; in that of “MGSWGMEALESDEGLDLINWVEEQLQDDSTFDAESIVQRLSQHEDLFGFQGDEEFLYDNNVIGLVELIIQKAAGEKITSSKQIDQLDSYRLTSIFSKKLQGRLQTIDDTHEWIMLFEGRAREKAKAYLIEITDKLRVVKTTA”, “soluble”.
On to “MAHHHHHHMRLHLPGRRDTRTASTGSSPVASLFLQKPIIFRKVAHGSASTILNVKRLELVLLETQSDQGKSEPDIQRLHWLTPHKLHQVHNDRITTATLQKNKVHSGYQFVLHIVQVSLEFLYRQKKAIILQLAERTLHERIFGGAKQLYHHQRAAGGGGK”, for which the “soluble on expression in E. coli” value is on record as “not soluble”.
Next, “MCIGMDIRDFFAQSAGRWFSQRTSHHLAFKQTESGKSQLTIELLSVDDPAVIALCQQYDMDPAWAVCGARVSWDGTMEWDNEKHEGSTVLVPIMDQGSRMEGKLLREMGYAEKAPVAGRFSMGSDGALTLITEYETIYSEERLWFASPNLRLRTSILKRFGGFSMASFCSEIRLGVTQPANSLEHHHHHH”: “soluble”; “MNDEQQNSNQSENTKKPFFQSLFGRFFQGELKNREELVEVIRDSEQNDLIDQNTREMIEGVMEIAELRVRDIMIPRSQIIFIEDQQDLNTCLNTIIESAHSRFPVIADADDRDNIVGILHAKDLLKFLREDAEVFDLSSLLRPVVIVPESKRVDRMLKDFRSERFHMAIVVDEFGAVSGLVTIEDILEQIVGDIEDEFDEEEIADIRQLSRHTYAVRALTDIDDFNAQFNTDFDDEEVDTIGGLIMQTFGYLPKRGEEIILKNLQFKVTSADSRRLIQLRVTVPDEHLAEMNNVDEKSELEHHHHHH”: “not soluble”; “MGSDKIHHHHHHVSVDDLIDTTSLELLVAPAPLADFLRQSSAMHRHLCPRQVLGARMGMYAGELLGLTLPQKNKRLYTFVETDGCFADGVSVTTGCWLGRRTMRLMDEGKVAATFVDTQTGQAFRIAPRPNVRDLARQYAPNARSRWHAYLIAYQLMPLTDLLIAQPITLTVDLKAIISRNGLRTTCDHCGEEIINAREVIRDGQTLCRTCGGEGYYTITG”: “not soluble”.
Next, “MGSDKIHHHHHHMKTQQERQPGKIATKFNQEKTREGKKLKIAVVAQDSQYPSTIQRFLAEADKSYPLISLIGGVQQVAAVAEQEQPDLLMLEGQYFSSMELETLNRVTSRFPDVGVVMLCPAQPPELLIEVMRAGVREVLPTPLTRHGVIDAVERFQQRIALSRMPMHECKVLAFIPCKGGSGATFLATNIAYALAAQENKRVALFDFNLQFGDASLFVQDGPPATSIADVARQIQRLDGSFLNSSMIQVLPNFGMLAAPESPEKAAEIRSEHINPLFQVAMKHYDFVILDVGRELDAISIQALDRADLIFPVLQQTLPSIRDARRMSAAFAALNYPDEKIRLIVNRYKKNADITLDDIESTLNLKIFKVVPNDYAVVTGSVNQGIPATKLAPRSPVAKSLQEIAHELCRGAGQGNLLRKLFAF”: “not soluble”; “MSLQKFSDEQRSQIETIIKEYLVSHPEVLEEASEELGKRQAAAQAEKHQQAIKDNADIIYNSPRGVTVGNKNGDVTMVEFFDYNCGYCKRAMTDMMELMKDDPNLKVVLKEFPVLGPPSVEAAQVAIAVRMQDPTGKKYLDFHQKLLGGRGQADKARALAAAKDAGLDPAKIEKDMNSPEVRATIEESFKLAESMGMNGTPSYVIGKQVVVGAVGLDTLRQKINTARCGKDKCEGHHHHHH”: “soluble”.
